Measurements reported in article PMC7735759, “Structural basis of TRPC4 regulation by calmodulin and pharmacological agents” (eLife, 2020).

Columns and labels:
[1] = target: T1, TRPC4 (Danio rerio, UniProt U3N7D8); assay: cryo-EM structure at […] Å; also dose-dependent inhibition of (-)-Englerin A currents in TRPC4-expressing oocytes; type: binding
T1 construct: gene trpc4b; residues 2–915
T1 sequence (U3N7D8 2-915): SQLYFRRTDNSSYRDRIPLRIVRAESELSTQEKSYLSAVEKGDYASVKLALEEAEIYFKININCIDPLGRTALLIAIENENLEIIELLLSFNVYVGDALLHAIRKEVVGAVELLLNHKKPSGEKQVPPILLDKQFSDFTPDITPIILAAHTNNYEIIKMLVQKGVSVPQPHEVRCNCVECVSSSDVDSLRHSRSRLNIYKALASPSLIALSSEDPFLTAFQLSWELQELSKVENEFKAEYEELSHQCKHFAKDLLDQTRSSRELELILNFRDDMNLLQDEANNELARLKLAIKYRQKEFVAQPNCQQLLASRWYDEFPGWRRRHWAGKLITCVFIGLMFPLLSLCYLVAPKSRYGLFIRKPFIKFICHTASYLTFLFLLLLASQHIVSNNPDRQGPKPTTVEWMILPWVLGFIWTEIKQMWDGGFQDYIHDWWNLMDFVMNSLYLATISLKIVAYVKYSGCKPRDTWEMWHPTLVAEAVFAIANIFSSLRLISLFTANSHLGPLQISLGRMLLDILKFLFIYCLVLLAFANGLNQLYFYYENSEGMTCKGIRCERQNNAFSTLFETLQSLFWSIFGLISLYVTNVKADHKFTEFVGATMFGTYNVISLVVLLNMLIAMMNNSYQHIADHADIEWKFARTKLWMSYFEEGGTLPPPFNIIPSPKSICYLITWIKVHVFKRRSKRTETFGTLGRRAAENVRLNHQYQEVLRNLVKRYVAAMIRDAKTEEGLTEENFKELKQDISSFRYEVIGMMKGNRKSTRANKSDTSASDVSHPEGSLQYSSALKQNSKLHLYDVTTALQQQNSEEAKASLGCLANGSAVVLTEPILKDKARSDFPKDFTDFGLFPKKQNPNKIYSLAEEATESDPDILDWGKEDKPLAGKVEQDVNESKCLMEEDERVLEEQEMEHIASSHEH

[2] = target: T1, TRPC4; assay: as above; type: binding; remark: listed apart in the source
[3] = target: T1, TRPC4; assay: as above; type: binding; remark: listed apart in the source
[4] = target: Zebrafish TRPC4 (Danio rerio TRPC4, residues 2-915) (Danio rerio (zebrafish)); assay: cryo-EM structure; TRPC4-CaM complex in LMNG, 10 mM calcium chloride, 10 µM CaM added; 3D sorting without symmetry for the stoichiometries
[5] = target: Zebrafish TRPC4 (Danio rerio TRPC4, residues 2-915) (Danio rerio (zebrafish)); assay: cryo-EM structure; TRPC4 alone: apo in LMNG, and in amphipols with 100 µM GFB-8438, GFB-9289 or GFB-8749; C4 symmetry

Compound: O=C1CN(c2cn[nH]c(=O)c2Cl)CCN1Cc1ccccc1C(F)(F)F [GFB-8438]
- cryo-EM structure at 3.6 Å; also dose-dependent inhibition of (-)-Englerin A cur [1]: The shape of the density clearly indicated that it corresponds to the bound inhibitor.

Compound: O=C1CN(c2cn[nH]c(=O)c2Cl)CCN1CC1CCC(F)(F)CC1 [GFB-8749]
- cryo-EM structure at 3.8 Å; also dose-dependent inhibition of (-)-Englerin A cur [2]: an extra density was observed inside the VSL domain region of GFB-8749-bound TRPC4

Compound: O=C1CN(c2cn[nH]c(=O)c2Cl)CCN1C1CCCCC1 [GFB-9289, 4-chloro-5-(4-cyclohexyl-3-oxopiperazin-1-yl)-2,3-dihydropyridazin-3-one]
- cryo-EM structure at 3.2 Å; also dose-dependent inhibition of (-)-Englerin A cur [3]: we found an extra density inside the VSL domain region of GFB-9289-bound TRPC4

Compound: Mouse calmodulin (CaM) (from UniProt P0DP26 1-149) (natural protein)
- percent of TRPC4 channels with four CaM bound (fully saturated) [4]: 20%
- percent of TRPC4 channels with one CaM bound [4]: 13%
- percent of TRPC4 channels with three CaM bound [4]: 31%
- percent of TRPC4 channels with two CaM bound [4]: 35%
- stoichiometry N (CaM per TRPC4 tetramer) [4]: < 4

Compound: Zebrafish TRPC4 (Danio rerio TRPC4, residues 2-915) (natural protein)
- stoichiometry N [4]: 4
- stoichiometry N [5]: 4
